The assay concerns the target Quinol-dependent nitric oxide reductase from Alcaligenes xylosoxidans (His-tagged AxqNOR-BRIL) (Alcaligenes xylosoxidans). Description: cryo-EM structure; single-particle cryoEM, 2.2 Å, refined in C2 symmetry; sample at 3 mg/mL in Tris-HCl buffer pH 7.0, 150 mM NaCl, 0.05% DTM; dimer.

The substance “Quinol-dependent nitric oxide reductase from Alcaligenes xylosoxidans (His-tagged AxqNOR-BRIL) (enzyme)” registered a stoichiometry N of 2.

The values are drawn from article PMC10256718.
